From publication PMC2213524 (The Journal of Experimental Medicine, 2000)

Target: Histidine-tagged rat N-WASP (rat, UniProt O08816 1-501)
Experiment: pull-down

Sequence of Histidine-tagged rat N-WASP (O08816 whole entry): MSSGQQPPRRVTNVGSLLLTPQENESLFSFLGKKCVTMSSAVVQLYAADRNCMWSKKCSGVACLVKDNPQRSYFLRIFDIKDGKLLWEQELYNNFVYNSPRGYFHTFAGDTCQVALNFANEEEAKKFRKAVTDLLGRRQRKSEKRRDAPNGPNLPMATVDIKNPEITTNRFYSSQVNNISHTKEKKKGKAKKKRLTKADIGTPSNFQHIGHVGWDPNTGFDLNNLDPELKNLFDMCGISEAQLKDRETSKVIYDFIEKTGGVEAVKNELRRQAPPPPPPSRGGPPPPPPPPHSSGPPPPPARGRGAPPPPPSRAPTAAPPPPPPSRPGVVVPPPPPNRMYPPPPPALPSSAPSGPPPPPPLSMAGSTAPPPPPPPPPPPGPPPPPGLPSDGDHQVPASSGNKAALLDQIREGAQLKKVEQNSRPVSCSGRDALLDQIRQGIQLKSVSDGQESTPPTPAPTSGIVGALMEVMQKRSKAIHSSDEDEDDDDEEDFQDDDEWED

fold change of coprecipitated amount with Cdc42-G12V (GTPγS) against without: 1.2 fold
B1: Recombinant VirG-α1 protein (Thr53–Arg759 of VirG polypeptide) (domain or fragment, S. flexneri, UniProt Q7BCK4 53-759, looked up)
chain: TPLSGTQELHFSEDNYEKLLTPVDGLSPLGAGEDGMDAWYITSSNPSHASRTKLRINSDIMISAGHGGAGDNNDGNSCGGNGGDSITGSDLSIINQGMILGGSGGSGADHNGDGGEAVTGDNLFIINGEIISGGHGGDSYSDSDGGNGGDAVTGVNLPIINKGTISGGNGGNNYGEGDGGNGGDAITGSSLSVINKGTFAGGNGGAAYGYGYDGYGGNAITGDNLSVINNGAILGGNGGHWGDAINGSNMTIANSGYIISGKEDDGTQNVAGNAIHITGGNNSLILHEGSVITGDVQVNNSSILKIINNDYTGTTPTIEGDLCAGDCTTVSLSGNKFTVSGDVSFGENSSLNLAGISSLEASGNMSFGNNVKVEAIINNWAQKDYKLLSADKGITGFSVSNISIINPLLTTGAIDYTKSYISDQNKLIYGLSWNDTDGDSHGEFNLKENAELTVSTILADNLSHHNINSWDGKSLTKSGEGTLILAEKNTYSGFTNINAGILKMGTVEAMTRTAGVIVNKGATLNFSGMNQTVNTLLNSGTVLINNINAPFLPDPVIVTGNMTLEKNGHVILNNSSSNVGQTYVQKGNWHGKGGILSLGAVLGNDNSKTDRLEIAGHASGITYVAVTNEGGSGDKTLEGVQIISTDSSDKNAFIQKGRIVAGSYDYRLKQGTVSGLNTNKWYLTSQMDNQESKQMSNQESTQMSSRR
